T1: Nbp2, Q12163
T1 sequence (Q12163 103-180, looked up): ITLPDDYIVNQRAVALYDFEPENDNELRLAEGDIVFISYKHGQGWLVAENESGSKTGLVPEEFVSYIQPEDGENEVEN

T2: Fus1, P11710
T2 sequence (P11710 432-512, looked up): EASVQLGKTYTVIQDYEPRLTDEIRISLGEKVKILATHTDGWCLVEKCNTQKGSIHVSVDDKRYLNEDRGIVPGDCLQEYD

T3: Hof1, Q05080
T3 sequence (Q05080 590-669, looked up): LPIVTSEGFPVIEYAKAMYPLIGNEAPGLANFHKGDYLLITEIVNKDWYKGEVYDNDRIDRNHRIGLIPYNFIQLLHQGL

T4: Lsb3, P43603
T4 sequence (P43603 385-451, looked up): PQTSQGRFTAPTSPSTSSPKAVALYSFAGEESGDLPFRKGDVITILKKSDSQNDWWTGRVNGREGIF

T5: Pin3, Q06449
T5 sequence (Q06449 53-122, looked up): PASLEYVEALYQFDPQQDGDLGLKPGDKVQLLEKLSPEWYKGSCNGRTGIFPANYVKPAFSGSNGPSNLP

T6: Sla1-2, P32790
T6 sequence (P32790 60-140, looked up): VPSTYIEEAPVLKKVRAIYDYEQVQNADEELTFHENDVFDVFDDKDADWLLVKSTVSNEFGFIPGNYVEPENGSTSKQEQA

T7: Myo5, Q04439
T7 sequence (Q04439 1072-1160, looked up): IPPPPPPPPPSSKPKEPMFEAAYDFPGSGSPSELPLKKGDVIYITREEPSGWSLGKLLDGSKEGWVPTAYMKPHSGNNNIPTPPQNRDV

T8: Cdc25, P04821
T8 sequence (P04821 50-136, looked up): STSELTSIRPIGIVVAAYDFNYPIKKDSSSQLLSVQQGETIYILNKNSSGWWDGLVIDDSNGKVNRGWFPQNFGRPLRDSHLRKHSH

T9: Lsb1, P53281
T9 sequence (P53281 45-122, looked up): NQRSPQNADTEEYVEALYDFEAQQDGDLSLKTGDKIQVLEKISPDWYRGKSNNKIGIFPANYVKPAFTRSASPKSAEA

T10: Pex13, P80667
T10 sequence (P80667 295-386, looked up): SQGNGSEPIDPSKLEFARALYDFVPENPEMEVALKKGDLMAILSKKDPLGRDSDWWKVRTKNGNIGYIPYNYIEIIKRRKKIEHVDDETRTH

T11: Hse1, P38753
T11 sequence (P38753 208-285, looked up): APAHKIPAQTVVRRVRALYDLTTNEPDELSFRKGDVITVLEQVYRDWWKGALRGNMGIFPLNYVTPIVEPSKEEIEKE

T12: Sla1-3, P32790
T12 sequence (P32790 344-424, looked up): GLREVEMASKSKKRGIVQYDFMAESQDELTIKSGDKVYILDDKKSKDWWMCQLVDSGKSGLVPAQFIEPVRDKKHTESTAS

T13: Bzz1-2, P38822
T13 sequence (P38822 568-633, looked up): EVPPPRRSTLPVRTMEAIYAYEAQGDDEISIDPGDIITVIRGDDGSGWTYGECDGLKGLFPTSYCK

T14: Lsb4, P32793
T14 sequence (P32793 402-468, looked up): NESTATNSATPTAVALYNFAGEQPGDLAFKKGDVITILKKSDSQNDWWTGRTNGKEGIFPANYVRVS

T15: Boi2, P39969
T15 sequence (P39969 32-116, looked up): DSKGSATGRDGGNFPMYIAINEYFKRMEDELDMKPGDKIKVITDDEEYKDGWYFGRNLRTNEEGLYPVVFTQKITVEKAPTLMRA

T16: Bzz1-1, P38822
T16 sequence (P38822 478-572, looked up): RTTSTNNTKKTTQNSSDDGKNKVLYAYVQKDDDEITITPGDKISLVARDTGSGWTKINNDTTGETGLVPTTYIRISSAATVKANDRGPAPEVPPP

T17: Cyk3, Q07533
T17 sequence (Q07533 1-83, looked up): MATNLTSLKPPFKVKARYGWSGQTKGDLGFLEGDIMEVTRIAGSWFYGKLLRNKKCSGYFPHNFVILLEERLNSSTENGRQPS

T18: Bud14, P27637
T18 sequence (P27637 247-328, looked up): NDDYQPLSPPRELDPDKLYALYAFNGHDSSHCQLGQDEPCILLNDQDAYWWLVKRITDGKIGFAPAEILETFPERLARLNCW

T19: Bbc1, P47068
T19 sequence (P47068 1-78, looked up): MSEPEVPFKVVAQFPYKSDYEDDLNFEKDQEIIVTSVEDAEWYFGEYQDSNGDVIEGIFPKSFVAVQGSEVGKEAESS

T20: Boi1, P38041
T20 sequence (P38041 1-86, looked up): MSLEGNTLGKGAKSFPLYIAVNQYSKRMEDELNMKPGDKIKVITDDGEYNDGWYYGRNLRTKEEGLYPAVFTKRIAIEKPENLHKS

T21: Abp1, P15891
T21 sequence (P15891 535-592, looked up): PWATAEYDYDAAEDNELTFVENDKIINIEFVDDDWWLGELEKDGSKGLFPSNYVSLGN


Legend:
Test in all cases: SPOT array
Nbp2, Q12163 = target: T1, Nbp2, Q12163; conditions: median of control spots 357
Rvs167, P39743 = conditions: median of control spots 2707
Sequence of Rvs167, P39743 (P39743 419-482): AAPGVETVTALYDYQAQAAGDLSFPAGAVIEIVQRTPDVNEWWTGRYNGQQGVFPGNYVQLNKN

Fus1, P11710 = target: T2, Fus1, P11710; conditions: median of control spots 1200
Bem1-2, P29366 = conditions: median of control spots 4347
Sequence of Bem1-2, P29366 (P29366 139-227): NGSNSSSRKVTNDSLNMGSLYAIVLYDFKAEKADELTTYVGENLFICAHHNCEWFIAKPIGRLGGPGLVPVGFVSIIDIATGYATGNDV

Hof1, Q05080 = target: T3, Hof1, Q05080; conditions: median of control spots 4086
Sho1, P40073 = conditions: median of control spots 1148
Sequence of Sho1, P40073 (P40073 287-367): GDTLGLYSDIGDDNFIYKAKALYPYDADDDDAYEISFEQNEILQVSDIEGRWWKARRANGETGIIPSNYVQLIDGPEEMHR

GST = conditions: median of control spots 978
Bem1-1, P29366 = conditions: median of control spots 4282
Sequence of Bem1-1, P29366 (P29366 55-141): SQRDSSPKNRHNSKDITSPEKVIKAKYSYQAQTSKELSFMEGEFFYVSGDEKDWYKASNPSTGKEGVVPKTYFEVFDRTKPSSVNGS

Lsb3, P43603 = target: T4, Lsb3, P43603; conditions: median of control spots 406
Pin3, Q06449 = target: T5, Pin3, Q06449; conditions: median of control spots 2171
Sla1-2, P32790 = target: T6, Sla1-2, P32790; conditions: median of control spots 712
Myo3, P36006 = conditions: median of control spots 468
Myo5, Q04439 = target: T7, Myo5, Q04439; conditions: median of control spots 471
Cdc25, P04821 = target: T8, Cdc25, P04821; conditions: median of control spots 969
Lsb1, P53281 = target: T9, Lsb1, P53281; conditions: median of control spots 388
Pex13, P80667 = target: T10, Pex13, P80667; conditions: median of control spots 1341
Hse1, P38753 = target: T11, Hse1, P38753; conditions: median of control spots 1727
Sla1-3, P32790 = target: T12, Sla1-3, P32790; conditions: median of control spots 5475
Bzz1-2, P38822 = target: T13, Bzz1-2, P38822; conditions: median of control spots 4538
Lsb4, P32793 = target: T14, Lsb4, P32793; conditions: median of control spots 397
Boi2, P39969 = target: T15, Boi2, P39969; conditions: median of control spots 1161
Bzz1-1, P38822 = target: T16, Bzz1-1, P38822; conditions: median of control spots 4446
Cyk3, Q07533 = target: T17, Cyk3, Q07533; conditions: median of control spots 1451
Bud14, P27637 = target: T18, Bud14, P27637; conditions: median of control spots 956
Bbc1, P47068 = target: T19, Bbc1, P47068; conditions: median of control spots 796
Boi1, P38041 = target: T20, Boi1, P38041; conditions: median of control spots 1162
Abp1, P15891 = target: T21, Abp1, P15891; conditions: median of control spots 935

Binder | SPOT intensity (Nbp2, Q12163) | SPOT intensity (Rvs167, P39743) | SPOT intensity (Fus1, P11710) | SPOT intensity (Bem1-2, P29366) | SPOT intensity (Hof1, Q05080) | SPOT intensity (Sho1, P40073) | SPOT intensity (GST) | SPOT intensity (Bem1-1, P29366) | SPOT intensity (Lsb3, P43603) | SPOT intensity (Pin3, Q06449) | SPOT intensity (Sla1-2, P32790) | SPOT intensity (Myo3, P36006) | SPOT intensity (Myo5, Q04439) | SPOT intensity (Cdc25, P04821) | SPOT intensity (Lsb1, P53281) | SPOT intensity (Pex13, P80667) | SPOT intensity (Hse1, P38753) | SPOT intensity (Sla1-3, P32790) | SPOT intensity (Bzz1-2, P38822) | SPOT intensity (Lsb4, P32793) | further results
RPVPRRPSQPLNTLS | 71 | 4060 | 0 | 75 | 13 | 95 | 0 | 0 | 138 | 26 | 0 | 5 | 0 | 37 | 94 | 348 | 34 | 31 | 13 | 163 | SPOT intensity (Boi2, P39969): 1; SPOT intensity (Bzz1-1, P38822): 0; SPOT intensity (Cyk3, Q07533): 1; SPOT intensity (Bud14, P27637): 11; SPOT intensity (Bbc1, P47068): 423; SPOT intensity (Boi1, P38041): 0; SPOT intensity (Abp1, P15891): 125
IAPIPMPKPNPTHIS | 1 | 0 | 0 | 0 | 0 | 0 | 0 | 0 | 0 | 43 | 1 | 22 | 7 | 0 | 2 | 54 | 0 | 0 | 0 | 9 | SPOT intensity (Boi2, P39969): 1; SPOT intensity (Bzz1-1, P38822): 0; SPOT intensity (Cyk3, Q07533): 1; SPOT intensity (Bud14, P27637): 0; SPOT intensity (Bbc1, P47068): 0; SPOT intensity (Boi1, P38041): 0; SPOT intensity (Abp1, P15891): 44
IRMPSNPALPKKLLN | 15 | 0 | 0 | 0 | 6 | 79 | 0 | 0 | 53 | 115 | 18 | 72 | 81 | 4 | 47 | 352 | 16 | 0 | 2 | 56 | SPOT intensity (Boi2, P39969): 2; SPOT intensity (Bzz1-1, P38822): 0; SPOT intensity (Cyk3, Q07533): 0; SPOT intensity (Bud14, P27637): 1; SPOT intensity (Bbc1, P47068): 2; SPOT intensity (Boi1, P38041): 0; SPOT intensity (Abp1, P15891): 231
AHFQPQRTAPKPPIS | 750 | 0 | 0 | 1860 | 0 | 1 | 0 | 0 | 0 | 5 | 0 | 413 | 104 | 5 | 17 | 13 | 0 | 4 | 0 | 4 | SPOT intensity (Boi2, P39969): 0; SPOT intensity (Bzz1-1, P38822): 1; SPOT intensity (Cyk3, Q07533): 0; SPOT intensity (Bud14, P27637): 1; SPOT intensity (Bbc1, P47068): 101; SPOT intensity (Boi1, P38041): 0; SPOT intensity (Abp1, P15891): 19

— article PMC2756588
